Values quoted from earlier work in US6713294B1, “DNA glycosylases and their use” (priority 1996, dated 2004).

Tests used:
3-methyladenine-DNA = settings: Bjelland et al. (1994); cited from earlier work
3-methyladenine = settings: Roy et al. (1994); cited from earlier work
7-methylguanine = settings: Roy et al. (1994); cited from earlier work
[1] = system: imidazole ring-opened form of 7-methylguanine-DNA substrate; settings: Boiteux et al. (1990); cited from earlier work

B1: AlkA: Escherichia coli inducible 3-methyladenine-DNA glycosylase II (protein, UniProt P04395 1-282, looked up)
DNA-3-methyladenine …: MYTLNWQPPYDWSWMLGFLAARAVSSVETVADSYYARSLAVGEYRGVVTAIPDIARHTLHINLSAGLEPVAAECLAKMSRLFDLQCNPQIVNGALGRLGAARPGLRLPGCVDAFEQGVRAILGQLVSVAMAAKLTARVAQLYGERLDDFPEYICFPTPQRLAAADPQALKALGMPLKRAEALIHLANAALEGTLPMTIPGDVEQAMKTLQTFPGIGRWTANYFALRGWQAKDVFLPDDYLIKQRFPGMTPAQIRRYAERWKPWRSYALLHIWYTEGWQPDEA
- Turnover number on 3-methyladenine-DNA (3-methyladenine-DNA): 0.03 min⁻¹

B2: N-methylpurine-DNA glycosylase: recombinant N-methylpurine-DNA glycosylase from mouse (protein, UniProt Q04841 1-333, looked up)
DNA-3-methyladenine …: MPARGGSARPGRGALKPVSVTLLPDTEQPPFLGRARRPGNARAGSLVTGYHEVGQMPAPLSRKIGQKKQRLADSEQQQTPKERLLSTPGLRRSIYFSSPEDHSGRLGPEFFDQPAVTLARAFLGQVLVRRLADGTELRGRIVETEAYLGPEDEAAHSRGGRQTPRNRGMFMKPGTLYVYLIYGMYFCLNVSSQGAGACVLLRALEPLEGLETMRQLRNSLRKSTVGRSLKDRELCSGPSKLCQALAIDKSFDQRDLAQDDAVWLEHGPLESSSPAVVVAAARIGIGHAGEWTQKPLRFYVQGSPWVSVVDRVAEQMDQPQQTACSEGLLIVQK
- Kcat for excision of 3-methyladenine (3-methyladenine): 0.013 s⁻¹
- Kcat for excision of 7-methylguanine (7-methylguanine): 0.00333 s⁻¹

B3: FPG protein: formamido-pyrimidine-DNA glycosylase (protein, UniProt P05523 2-269, looked up)
Formamidopyrimidine-DNA …: PELPEVETSRRGIEPHLVGATILHAVVRNGRLRWPVSEEIYRLSDQPVLSVQRRAKYLLLELPEGWIIIHLGMSGSLRILPEELPPEKHDHVDLVMSNGKVLRYTDPRRFGAWLWTKELEGHNVLTHLGPEPLSDDFNGEYLHQKCAKKKTAIKPWLMDNKLVVGVGNIYASESLFAAGIHPDRLASSLSLAECELLARVIKAVLLRSIEQGGTTLKDFLQSDGKPGYFAQELQVYGRKGEPCRVCGTPIVATKHAQRATFYCRQCQK
- Kcat on imidazole ring-opened form of 7-methylguanine-DNA [1]: 0.0233 s⁻¹
